The nature of data set [1]: folding stability dG unfold from trypsin proteolysis; higher = more stable. The method in brief:
(§1)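 K50 was inferred by Bayesian fitting of sequencing counts obtained after protease digestion of designed mini-proteins. Unfolding free energy was derived by comparison with a sequence-predicted unfolded-state K50 and a shared folded-state K50, for each protease or both combined. The mini-proteins were under 80 residues, had no cysteine, were carried in a PA-tagged cDNA display construct, and were kept only if AlphaFold2 dimer inter-PAE exceeded 15.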

Data set [2] can be described thus: folding stability dG unfold from chymotrypsin proteolysis; higher = more stable. The method in brief:
as §1

Data set [3] is described as follows: folding stability dG unfold (combined trypsin and chymotrypsin); higher = more stable. A digest of the protocol:
as §1

± gives the half width of the 95% confidence interval.

For “SAGGMTTLTLETTDEGKPLGLEEILARLREALPGVPVEVLSADPAKGVVTIAVAPEAVPEIERAVAASAGGS [r8_235_JUSTAS]”, the “folding stability dG unfold” value in data set [1] came to 7.08 ± 0.159 kJ/mol; in data set [2], 8.78 ± 0.092 kJ/mol; in data set [3], 8.19 ± 0.31 kJ/mol.

Take “SAGGMTTTTTTYTIQLPNGETLTITITTTTLPGGITVTIPIGGTSPDQIAIAKELAEKLAAEIKEAASAGGS [r8_416_JUSTAS]”: the “folding stability dG unfold” value in data set [1] was determined as 12.1 ± 0.402 kJ/mol; in data set [2], 16 ± 0.418 kJ/mol; in data set [3], 14.9 ± 0.46 kJ/mol.

As to “SAGGMTTTTVEVKRLPNGSIERTLKTTVPLPNGDLVVTTTKSIVYREDGKVVKEEVLETETTLLPATSAGGS [r8_36_JUSTAS]”, the “folding stability dG unfold” value in data set [1] came out at 10.8 ± 0.343 kJ/mol; in data set [2], 12.2 ± 0.322 kJ/mol; in data set [3], 11.6 ± 0.31 kJ/mol.

“SAGGMTVTLEIEIPAEELSEEELKALLEELFPNAEVTVERLPDGTLRITIRVEVPPAPPEVVVLPDKSAGGS [r16_535_TrROS_Hall]”: the “folding stability dG unfold” value in data set [1] is 11 ± 0.343 kJ/mol; in data set [2] it was 12.4 ± 0.502 kJ/mol; in data set [3], 12.1 ± 0.502 kJ/mol.

On to “SAGGMTVTVKVKPDEYVIVEIENPVLDSTLTYVVPFNSPMTVTLPLPPDYKVKKITVVSPKKVSKELLSAGG [r13_119_JUSTAS]”, for which the entries for the “folding stability dG unfold” value in data set [1], in data set [2] and in data set [3] were 5.12 ± 0.0544 kJ/mol, 8.57 ± 0.247 kJ/mol and 7.45 ± 0.247 kJ/mol, respectively.

In the case of “SAGGMTYVLPNGERLLVRVSVRTEPRLDPDRPELVLEPRVEIELFAVSPDLTLRPVPEELARELFEKESAGG [r13_809_TrMRF]”, the “folding stability dG unfold” value in data set [1] is 3.73 ± 0.0795 kJ/mol; in data set [2] it was 5.58 ± 0.293 kJ/mol; in data set [3] it was 5.04 ± 0.184 kJ/mol.

In the case of “SAGGMVDIYFPDAVIDDSGTKEDILEQLEKVTGKPIPEELREEILKGKTVEEIVELLKKRGFDVRVDSAGGS [r16_601_TrMRF]”, the figures for the “folding stability dG unfold” value in data set [1], in data set [2] and in data set [3] were 11.7 ± 0.502 kJ/mol, 14.2 ± 0.247 kJ/mol and 13.1 ± 0.502 kJ/mol, respectively.

Consider “SAGGMVEIELEVDGKKIKITYDKETGKITIEIDGKKIEVELPEEDKGKSKEELLKKALEKAKEELKKSAGGS [r16_215_TrROS_Hall]”, for which the “folding stability dG unfold” value in data set [1] stood at 10.3 ± 0.962 kJ/mol; in data set [2], 10.3 ± 0.46 kJ/mol; in data set [3] it was 10.4 ± 0.46 kJ/mol.

Take “SAGGMVEVKPFEIKPPGSSITVTLTDPQGNVIGSTTVSVPTGRLELTITVEPDKTVKVTLTELPPSEVSAGG [r13_935_JUSTAS]”: the “folding stability dG unfold” value was 5.94 ± 0.36 kJ/mol in data set [1], -1.1 ± 1.42 kJ/mol in data set [2] and 4.23 ± 0.544 kJ/mol in data set [3].

With “SAGGMVIVIKTPGGASELEIGDLTITTNPDTGLRVAEATPEQIEELLKADALKDIEEIEVLPIEELLSAGGS [r8_493_TrMRF]”, the “folding stability dG unfold” value in data set [1] is 1.7 ± 0.197 kJ/mol; in data set [2] it was -0.222 ± 0.159 kJ/mol; in data set [3], 1.02 ± 0.46 kJ/mol.

As to “SAGGMVKIVRVTFEDGRELVLTEPEKIEEFLKKALGPNFVIKEVREGYVPHPDGPPIPTFELVVERPSAGGS [r16_408_TrMRF]”, the “folding stability dG unfold” value in data set [1] amounted to 8.82 ± 0.222 kJ/mol; in data set [2] it was 11.09 ± 0.0879 kJ/mol; in data set [3], 10.2 ± 0.176 kJ/mol.

In the case of “SAGGMVKVLKVETYPGTGEVIVTMELPGNTVATVRIPRAPDAPLTVSPDGVVTVPTAPVTELETTAPSAGGS [r16_515_JUSTAS]”, the “folding stability dG unfold” value in data set [1] was -1.16 ± 0.222 kJ/mol; in data set [2] it was 2.47 ± 0.226 kJ/mol; in data set [3], 1.35 ± 0.205 kJ/mol.

For “SAGGMVLVEPSPDAVVRVIEREGDLARVTVYDPRSGARTVELVPIAPTGKGGVRLETLEVRVLPDAEASAGG [r13_556_JUSTAS]”, the “folding stability dG unfold” value was -0.567 ± 0.146 kJ/mol in data set [1], -0.399 ± 0.201 kJ/mol in data set [2] and -0.391 ± 0.238 kJ/mol in data set [3].

“SAGGMVLVSTPSNRGASSEILKEAAEAISAGDPDKAAELAREYFQKNFPPDEPIKIEIFVDPPVEPESAGGS [r8_48_TrMRF]”: the “folding stability dG unfold” value in data set [1] was 1.99 ± 0.046 kJ/mol; in data set [2], 3.11 ± 0.264 kJ/mol; in data set [3], 2.77 ± 0.184 kJ/mol.

For “SAGGMVTTESTKPYLLPNGTKATLTTTTTLYPDGTVVSPTTFTLTFPDGSSTTTTTTTVTTLASGALSAGGS [r16_505_JUSTAS]”, the “folding stability dG unfold” value amounted to 3.5 ± 0.201 kJ/mol in data set [1], 2.35 ± 0.372 kJ/mol in data set [2] and 3.04 ± 0.272 kJ/mol in data set [3].

For “SAGGMVTVSTPLGLGYSEEIKARMEEYVKAGDPEAAKELAQEYIDAKYPPKWPVEISFHENPAISKKSAGGS [r8_48_JUSTAS]”, the “folding stability dG unfold” value in data set [1] was -3.22 ± 1.59 kJ/mol; in data set [2], -0.874 ± 0.753 kJ/mol; in data set [3], -1.66 ± 1.51 kJ/mol.

For the sequence “SAGGMYMVQIEVRSPDKEIPFMIMVPEDDPKKIVDDIKEEIAEEAGADNVNIKIEVYRMDENGEWEWISAGG [r13_877_TrROS]”, the entries for the “folding stability dG unfold” value in data set [1], in data set [2] and in data set [3] were 3.62 ± 0.368 kJ/mol, 4.23 ± 0.544 kJ/mol and 4.26 ± 0.46 kJ/mol, respectively.

Turning to “SAGGMYVLPIDLDPASLTEEERLAVARELAEELYAAGVPGDVMLIIPREEKPLTITIDFATGEVTVVDSAGG [r19_204_JUSTAS]”, the “folding stability dG unfold” value in data set [1] was 5.53 ± 0.188 kJ/mol; in data set [2] it was 5.12 ± 0.23 kJ/mol; in data set [3], 5.48 ± 0.201 kJ/mol.

These data come from the supplement of paper PMC12764529.
